Columns and labels:
[1] = biological target: ILT4 (CHO-S/ILT4 cells) (human); assay: FACS
[2] = biological target: ILT4 (CHO-S/ILT4 cells) (human); assay: FACS, assay 4
[3] = biological target: ILT4 (CHO-S/ILT4 cells) (human); assay: FACS, assay 3
[4] = biological target: ILT4 (CHO-S/ILT4 cells) (human); assay: FACS, assay 2

ILT4 (CHO-S/ILT4 cells) (human), sequence (chain, as listed by the source): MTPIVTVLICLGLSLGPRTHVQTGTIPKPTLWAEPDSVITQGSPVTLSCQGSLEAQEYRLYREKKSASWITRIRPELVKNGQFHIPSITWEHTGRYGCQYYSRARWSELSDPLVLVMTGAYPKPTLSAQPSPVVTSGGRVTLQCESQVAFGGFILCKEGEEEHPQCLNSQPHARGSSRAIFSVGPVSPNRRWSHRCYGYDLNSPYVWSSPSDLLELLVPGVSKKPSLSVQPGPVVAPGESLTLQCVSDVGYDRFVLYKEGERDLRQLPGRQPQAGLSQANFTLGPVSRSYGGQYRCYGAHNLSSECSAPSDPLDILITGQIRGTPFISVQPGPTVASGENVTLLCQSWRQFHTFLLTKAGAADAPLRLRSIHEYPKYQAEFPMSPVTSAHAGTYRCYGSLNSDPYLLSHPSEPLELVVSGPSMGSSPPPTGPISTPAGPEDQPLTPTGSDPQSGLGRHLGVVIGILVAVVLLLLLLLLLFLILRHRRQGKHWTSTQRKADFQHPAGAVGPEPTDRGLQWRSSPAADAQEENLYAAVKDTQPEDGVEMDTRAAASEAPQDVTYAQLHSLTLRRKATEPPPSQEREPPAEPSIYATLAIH

Row | Binder | EC50 [1] [µg/mL] | EC50 [2] [µg/mL] | EC50 [3] [µg/mL] | EC50 [4] [µg/mL]
1 | MK (antibody, V domains shown) VH: EVQLQQWGAGLLKPSETLSLTCAVYGGSFSGYYWSWIRQPPGKGLEWIGEINHAGSTNYNPSLKSRVTISVDTSKNQFSLKLSSVTAADTAVYYCARLPTRWVTTRYFDLWGRGTLVTVSS VL: ESVLTQPPSVSGAPGQRVTISCTGSSSNIGAGYDVHWYQQLPGTAPKLLIYGDSNRPSGVPDRFSVSKSGASASLAITGLQAEDEADYYCQSFDNSLSAYVFGGGTQLTVLG | – | 0.0139 | 0.301 | 0.0415
2 | P2m (antibody, V domains shown) VH: QVQLVQSGAEVKKPGSSVKVSCKASGYTFTSYDISWVRQAPGQGLEWMGGIIPIFGTANYAQKFQGRVTITADESTSTAYMELSSLRSEDTAVYYCTAGIFLATAYWGQGTLVTVSS VL: DIQMTQSPSSMSASVGDRVTISCQASQDIQNYLNWYQQRPGQAPKLLIYDASTLETGVPSRFSGSGSGTYFTLTISSLQPEDVATYYCQQYENVPITFGQGTRLEIK | 0.0163 | – | – | –

Second part, the binder after the results:

Row | EC50 [1] [µg/mL] | EC50 [2] [µg/mL] | EC50 [3] [µg/mL] | EC50 [4] [µg/mL] | Binder
3 | 0.0368 | – | – | – | huP2-C6 (antibody, V domains shown) VH: EVQLVQSGAEVKKPGASVKVSCKASGYTFTDYYIHWVRQAPGQGLEWMGYIYPDTGYSGYNQKFKGRVTMTVDKSTSTAYMELRSLRSDDTAVYYCTRRGDYSGVHFDYWGQGTTVTVSS VL: DIVLTQSPDSLAVSLGERATINCRASESVNNYGVGFLHWYQQKPGQPPKLLIYRASTLESGIPDRFSGSGSGTDFTLTISSLQAEDVAVYYCQHSYKDPPWTFGGGTKVEIK
4 | 0.045 | – | – | – | huP2-G9 (antibody, V domains shown) VH: EVQLQESGPGLVKPSQTLSLTCTVSGSSITSGYYWNWIRQHPGKGLEWIGYLSYDGSNNYNPSLKNLVTISRDTSKNQFSLKLSSVTAADTAVYYCAREGAHYSGTLSWFAYWGQGTLVTVSS VL: DIQMTQSPSSLSASVGDRVTITCRASENIYSNLAWYQQKPGKSPKLLVYAATNLADGVPSRFSGSGSGTDYTLTISSLQPEDFATYYCQHFWDTPYTFGGGTKVEIK

— US20260356937 (published 2026)
